Reference: publication PMC3544810

Target: PSD95 (HA-PSD95, VN-PSD95 plasmids) (UniProt P31016)
Assay: co-immunoprecipitation, GFP-SPIN90 and HA-PSD95
Details: reference: GFP-SPIN90 WT; sites Y85,Y161,Y227

binding against the reference: weaker
Substance: SPIN90 (from UniProt Q9NZQ3) GFP-SPIN90 YF (Y85,161,227F)
